Experimental data taken from patent publication US20190127468A1.
Several values for one entry are separate records, joined by “and”; a condition that tells them apart may be missing. Equal values may be shown once.

Columns and labels:
[1] = target: human CTLA4 in cells of Ctla4 h/h knock-in mice (human) (UniProt P16410); assay: flow cytometry, intracellular staining of CTLA4 in spleen cells of Ctla4 h/h mice, gated on CD3+CD4+
[2] = target: mouse CTLA4 in cells of Ctla4 m/m (WT) mice (mouse) (UniProt P09793); assay: flow cytometry, intracellular staining of CTLA4 in spleen cells of Ctla4 m/m mice, gated on CD3+CD4+
[3] = target: mouse CTLA4-Fc fusion protein (mouse) (UniProt P09793); assay: blocking ELISA: plate B7-1, biotinylated mouse CTLA4-Fc with the antibody, HRP-streptavidin; blocked ligand B7-1
[4] = target: mouse CTLA4-Fc fusion protein (mouse) (UniProt P09793); assay: blocking ELISA: plate B7-2, biotinylated mouse CTLA4-Fc with the antibody, HRP-streptavidin; blocked ligand B7-2
[5] = target: CTLA-4Fc mutant M11 (AA103-106, YLGI>fcGm) (human); assay: ELISA, plate-coated CTLA-4Fc protein, biotinylated B7-1 Ig at 1 ug/ml, HRP-streptavidin
Chain of CTLA-4Fc mutant M11 (AA103-106, YLGI>fcGm) (human) (chain, as listed by the source mutant limits assumed): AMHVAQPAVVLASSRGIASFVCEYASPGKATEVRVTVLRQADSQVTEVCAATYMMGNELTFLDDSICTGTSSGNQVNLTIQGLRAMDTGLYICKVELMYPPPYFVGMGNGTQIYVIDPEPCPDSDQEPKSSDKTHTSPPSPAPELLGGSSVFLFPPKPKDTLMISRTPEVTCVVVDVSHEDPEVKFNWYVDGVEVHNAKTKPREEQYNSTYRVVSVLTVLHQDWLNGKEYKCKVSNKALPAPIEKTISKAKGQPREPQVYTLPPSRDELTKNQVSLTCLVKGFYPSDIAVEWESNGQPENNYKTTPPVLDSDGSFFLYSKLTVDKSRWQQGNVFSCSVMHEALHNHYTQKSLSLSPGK

[6] = target: CTLA-4Fc mutant M11 (AA103-106, YLGI>fcGm) (human); assay: ELISA, plate-coated CTLA-4Fc protein, biotinylated B7-1 Ig at 0 (blank), HRP-streptavidin
[7] = target: CTLA-4Fc mutant M11 (AA103-106, YLGI>fcGm) (human); assay: ELISA, plate-coated CTLA-4Fc protein, biotinylated B7-1 Ig at 100 ng/ml, HRP-streptavidin
[8] = target: CTLA-4Fc mutant M11 (AA103-106, YLGI>fcGm) (human); assay: ELISA, plate-coated CTLA-4Fc protein, biotinylated B7-1 Ig at 10 ng/ml, HRP-streptavidin
[9] = target: mouse CTLA4 in cells of Ctla4 m/m (WT) mice (mouse) (UniProt P09793); assay: cell-based or functional assay
[10] = target: Control IgG1-Fc (human) [IgG part: P01857]; assay: ELISA on coated target; binder 0 (background)
[11] = target: Control IgG1-Fc (human) [IgG part: P01857]; assay: ELISA on coated target; binder 1000 ng/ml
[12] = target: Control IgG1-Fc (human) [IgG part: P01857]; assay: ELISA on coated target; binder 100 ng/ml
[13] = target: Control IgG1-Fc (human) [IgG part: P01857]; assay: ELISA on coated target; binder 10 ng/ml

Chain of human CTLA4 in cells of Ctla4 h/h knock-in mice (human) (P16410 36-223): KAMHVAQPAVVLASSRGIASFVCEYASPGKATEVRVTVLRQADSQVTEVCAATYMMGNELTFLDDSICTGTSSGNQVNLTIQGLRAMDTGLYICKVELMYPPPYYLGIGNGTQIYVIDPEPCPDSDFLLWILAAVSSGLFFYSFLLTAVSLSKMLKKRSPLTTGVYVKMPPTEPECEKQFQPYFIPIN
Chain of anti-mouse CTLA4 mAb 9D9 (antibody) (light): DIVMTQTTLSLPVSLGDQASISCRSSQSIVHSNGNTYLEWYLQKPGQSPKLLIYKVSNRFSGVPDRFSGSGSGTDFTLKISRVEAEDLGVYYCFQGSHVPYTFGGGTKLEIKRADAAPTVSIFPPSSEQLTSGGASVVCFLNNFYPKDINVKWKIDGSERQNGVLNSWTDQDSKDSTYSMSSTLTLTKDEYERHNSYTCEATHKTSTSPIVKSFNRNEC
Chain of anti-mouse CTLA4 mAb 9D9 (antibody) (heavy): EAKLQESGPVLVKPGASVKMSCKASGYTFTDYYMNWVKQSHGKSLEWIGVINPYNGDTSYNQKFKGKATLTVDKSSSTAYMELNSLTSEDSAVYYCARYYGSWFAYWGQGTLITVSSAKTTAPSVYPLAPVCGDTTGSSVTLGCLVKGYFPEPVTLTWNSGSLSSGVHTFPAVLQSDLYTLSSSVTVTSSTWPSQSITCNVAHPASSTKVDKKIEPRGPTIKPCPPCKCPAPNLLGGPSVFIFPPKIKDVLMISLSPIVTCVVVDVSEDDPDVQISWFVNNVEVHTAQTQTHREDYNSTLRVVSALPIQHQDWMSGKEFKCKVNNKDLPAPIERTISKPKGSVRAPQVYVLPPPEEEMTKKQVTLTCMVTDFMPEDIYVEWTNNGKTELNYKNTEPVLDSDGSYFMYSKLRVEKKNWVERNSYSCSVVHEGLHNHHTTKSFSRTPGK

Substance anti-mouse CTLA4 mAb 4F10 (antibody) has a number over the gate (FoxP3-positive, 4F10-stained) among CD3+CD4+ splenocytes [1] of 0.107, a number over the gate (FoxP3-positive, 4F10-stained) among CD3+CD4+ splenocytes [2] of 9.52 and an IC50 (read off the curve) [3] of 1 µg/mL. For the same substance, the IC50 (read off the curve) [4] was 0.3 µg/mL.

With “human B7-1 Fc fusion protein (from UniProt P33681 35-242)” the OD450 [5] was 3.05 OD450 and 3.16 OD450, the OD450 [6] was 0.174 OD450 and 0.163 OD450 and the OD450 [7] was 0.884 OD450 and 1.04 OD450. The OD450 [8] was 0.22 OD450 and 0.217 OD450.

With anti-mouse CTLA4 mAb 9D9 (antibody) the B7-1 level on CD11c hi DC of WT mice 24 h after 500 µg antibody [9] was 15%.

chimeric L3D10 antibody was tested, and the OD450 [10] was 0.198 OD and 0.184 OD, the OD450 [11] was 1.39 OD and 1.48 OD and the OD450 [12] was 0.315 OD and 0.326 OD. The OD450 [13] was 0.201 OD and 0.182 OD.
